B1: Segment polarity protein dishevelled homolog DVL-3, residues 2 to 81; numbered along this chain, Q92997 (parent)
chain: GETKIIYHLDGQETPYLVKLPLPAERVTLADFKGVLQRPSYKFFFKSMDDDFGVVKEEISDDNAKLPCFNGRVVSWLVSA

± gives the uncertainty stated by the source.

Variants of B1 are the subject of the series. Put plainly: abundance fitness (aPCA) (normalised: wild type 0, dead -1); higher = more abundant; growth selection in yeast, the domain comes from the species named. Conditions: Homo sapiens.
Take GETKIIYHLDGQETPYLVKLPLPAERVTLADFKGVLQRPSYKFFFKSMDDSFGVVKEEISDDNAKLPCFNGRVVSWLVSA: the abundance fitness was determined as 0.072 ± 0.056.
The same measure for GETKIIYHLDGQETPYLVKLPLPAERVTLADFKGVLQRPSYKFFFKSMDDMFGVVKEEISDDNAKLPCFNGRVVSWLVSA: -0.279 ± 0.12; for GETKIIYHLDGQETPYLVKLPLPAERVTLADFKGVLQRPSYKFFFKSMDDYFGVVKEEISDDNAKLPCFNGRVVSWLVSA: -0.224 ± 0.097; for GETKIIYHLDGQETPYLVKLPLPAERVTLADFKGVLQRPSYKFFFKSMDDRFGVVKEEISDDNAKLPCFNGRVVSWLVSA: 0.224 ± 0.059.
For GETKIIYHLDGQETPYLVKLPLPAERVTLADFKGVLQRPSYKFFFKSMDDLFGVVKEEISDDNAKLPCFNGRVVSWLVSA the value was -0.32 ± 0.077; for GETKIIYHLDGQETPYLVKLPLPAERVTLADFKGVLQRPSYKFFFKSMDDHFGVVKEEISDDNAKLPCFNGRVVSWLVSA, 0.058 ± 0.079; for GETKIIYHLDGQETPYLVKLPLPAERVTLADFKGVLQRPSYKFFFKSMDDEFGVVKEEISDDNAKLPCFNGRVVSWLVSA, -0.074 ± 0.11.
As to GETKIIYHLDGQETPYLVKLPLPAERVTLADFKGVLQRPSYKFFFKSMDDTFGVVKEEISDDNAKLPCFNGRVVSWLVSA, the abundance fitness was determined as 0.166 ± 0.067.
The same measure for GETKIIYHLDGQETPYLVKLPLPAERVTLADFKGVLQRPSYKFFFKSMDDIFGVVKEEISDDNAKLPCFNGRVVSWLVSA: -0.202 ± 0.094.
With GETKIIYHLDGQETPYLVKLPLPAERVTLADFKGVLQRPSYKFFFKSMDDAFGVVKEEISDDNAKLPCFNGRVVSWLVSA, the abundance fitness is 0.022 ± 0.07.
For GETKIIYHLDGQETPYLVKLPLPAERVTLADFKGVLQRPSYKFFFKSMDDPFGVVKEEISDDNAKLPCFNGRVVSWLVSA the value was 0.057 ± 0.073.
GETKIIYHLDGQETPYLVKLPLPAERVTLADFKGVLQRPSYKFFFKSMDDGFGVVKEEISDDNAKLPCFNGRVVSWLVSA: the abundance fitness was -0.004 ± 0.079.
For GETKIIYHLDGQETPYLVKLPLPAERVTLADFKGVLQRPSYKFFFKSMDDWFGVVKEEISDDNAKLPCFNGRVVSWLVSA the value was -0.824 ± 0.24.
For GETKIIYHLDGQETPYLVKLPLPAERVTLADFKGVLQRPSYKFFFKSMDDFFGVVKEEISDDNAKLPCFNGRVVSWLVSA the value was -0.198 ± 0.11; for GETKIIYHLDGQETPYLVKLPLPAERVTLADFKGVLQRPSYKFFFKSMDDCFGVVKEEISDDNAKLPCFNGRVVSWLVSA, -0.191 ± 0.11.
In the case of GETKIIYHLDGQETPYLVKLPLPAERVTLADFKGVLQRPSYKFFFKSMDDNFGVVKEEISDDNAKLPCFNGRVVSWLVSA, the abundance fitness stood at 0.25 ± 0.063.
As to GETKIIYHLDGQETPYLVKLPLPAERVTLADFKGVLQRPSYKFFFKSMDDKFGVVKEEISDDNAKLPCFNGRVVSWLVSA, the abundance fitness was 0.197 ± 0.079.
Take GETKIIYHLDGQETPYLVKLPLPAERVTLADFKGVLQRPSYKFFFKSMDDVFGVVKEEISDDNAKLPCFNGRVVSWLVSA: the abundance fitness is -0.113 ± 0.077.
The same measure for GETKIIYHLDGQETPYLVKLPLPAERVTLADFKGVLQRPSYKFFFKSMDHDFGVVKEEISDDNAKLPCFNGRVVSWLVSA: -0.188 ± 0.082; for GETKIIYHLDGQETPYLVKLPLPAERVTLADFKGVLQRPSYKFFFKSMDTDFGVVKEEISDDNAKLPCFNGRVVSWLVSA: -0.074 ± 0.062.
The same measure for GETKIIYHLDGQETPYLVKLPLPAERVTLADFKGVLQRPSYKFFFKSMDPDFGVVKEEISDDNAKLPCFNGRVVSWLVSA: -0.016 ± 0.06; for GETKIIYHLDGQETPYLVKLPLPAERVTLADFKGVLQRPSYKFFFKSMDADFGVVKEEISDDNAKLPCFNGRVVSWLVSA: -0.15 ± 0.068; for GETKIIYHLDGQETPYLVKLPLPAERVTLADFKGVLQRPSYKFFFKSMDCDFGVVKEEISDDNAKLPCFNGRVVSWLVSA: -0.263 ± 0.13.
On to GETKIIYHLDGQETPYLVKLPLPAERVTLADFKGVLQRPSYKFFFKSMDIDFGVVKEEISDDNAKLPCFNGRVVSWLVSA, for which the abundance fitness is -0.421 ± 0.12.
With GETKIIYHLDGQETPYLVKLPLPAERVTLADFKGVLQRPSYKFFFKSMDNDFGVVKEEISDDNAKLPCFNGRVVSWLVSA, the abundance fitness is -0.079 ± 0.078.
The same measure for GETKIIYHLDGQETPYLVKLPLPAERVTLADFKGVLQRPSYKFFFKSMDEDFGVVKEEISDDNAKLPCFNGRVVSWLVSA: -0.184 ± 0.13; for GETKIIYHLDGQETPYLVKLPLPAERVTLADFKGVLQRPSYKFFFKSMDMDFGVVKEEISDDNAKLPCFNGRVVSWLVSA: -0.329 ± 0.1.
For GETKIIYHLDGQETPYLVKLPLPAERVTLADFKGVLQRPSYKFFFKSMDQDFGVVKEEISDDNAKLPCFNGRVVSWLVSA the value was -0.041 ± 0.078; for GETKIIYHLDGQETPYLVKLPLPAERVTLADFKGVLQRPSYKFFFKSMDFDFGVVKEEISDDNAKLPCFNGRVVSWLVSA, -0.645 ± 0.15.
The same measure for GETKIIYHLDGQETPYLVKLPLPAERVTLADFKGVLQRPSYKFFFKSMDLDFGVVKEEISDDNAKLPCFNGRVVSWLVSA: -0.475 ± 0.069; for GETKIIYHLDGQETPYLVKLPLPAERVTLADFKGVLQRPSYKFFFKSMDGDFGVVKEEISDDNAKLPCFNGRVVSWLVSA: 0.069 ± 0.07; for GETKIIYHLDGQETPYLVKLPLPAERVTLADFKGVLQRPSYKFFFKSMDWDFGVVKEEISDDNAKLPCFNGRVVSWLVSA: -0.445 ± 0.15.
For GETKIIYHLDGQETPYLVKLPLPAERVTLADFKGVLQRPSYKFFFKSMDYDFGVVKEEISDDNAKLPCFNGRVVSWLVSA, the abundance fitness is -0.287 ± 0.095.
As to GETKIIYHLDGQETPYLVKLPLPAERVTLADFKGVLQRPSYKFFFKSMDKDFGVVKEEISDDNAKLPCFNGRVVSWLVSA, the abundance fitness is 0.131 ± 0.083.
In the case of GETKIIYHLDGQETPYLVKLPLPAERVTLADFKGVLQRPSYKFFFKSMDSDFGVVKEEISDDNAKLPCFNGRVVSWLVSA, the abundance fitness came out at 0.089 ± 0.048.

The values are drawn from the Human Domainome abundance scans (Beltran et al. 2025).
